Where “and” joins values, the source holds several entries; their conditions need not be identical. Identical values can stand only once. Entries after “also recorded” stand apart in the source; their conditions may differ.
Tests used:
integrin αV/β5 = test: Protein-protein binding assay: irisin with his-tag integrins, Ni-NTA co-precipitation and immunoblot; set-up: species or system murine and human; settings: 100 nM irisin, 5 nM his-tag integrin
Description: 100 nM irisin was incubated with 5 nM indicated his-tag integrins followed by immunoprecipitation using Ni-NTA agaroses. Precipitated integrins and co-precipitated irisin were analyzed by immunoblot analysis. […] HEK293T cells were seeded and incubated until 50% cell density. The cells were transfected with 0.1 μg plasmids of indicated integrins. After 48 hours, the cells were incubated with Freestyle293 medium for 3 hours and were treated with indicated concentration of irisin for 5 minutes. Cells were lysed to detect the indicated protein level using immunoblot analysis. […] Sclerostin mRNA level was analyzed by qRT-PCR. […]
100 nM irisin was incubated with 5 nM indicated his-tag integrins followed by immunoprecipitation using Ni-NTA agaroses. Precipitated integrins and co-precipitated irisin were analyzed by immunoblot analysis. […] Cells were treated and analyzed as FIG. 14B except using plasmids encoding integrin α5/β1 or integrin α11/β1 (FIG. 15C) integrin αV/β1(FIG. 15D).
100 nM flag-tagged mammalian irisin was incubated with 5 nM of the indicated his-tag integrins in a final volume of 600 μl in 1.5 ml Protein LoBind Tubes (Eppendorf®, 022431081) for 5 minutes at room temperature under rotation. […] Precipitated integrins were detected by immunoblot analysis against his tag. Co-precipitated irisin was detected by immunoblot analysis against flag-tag.

MLO-Y4 cells = test: Anti-apoptosis assay: H2O2-induced cell death of MLO-Y4 osteocytes; type: cell-based
Description: Cells were stained with Hoechst 33342 and Eth-D1, and analyzed to determine the percentage of cell death. *: p<0.05, ***: p<0.001 vs 0.3 mM H2O2 treated condition. […] MLO-Y4 cells were seeded and incubated until 60% cell density. The cells were incubated with Freestyle293 medium for 4 hours and were treated with indicated concentrations of irisin for 16 hours. Sclerostin mRNA level was analyzed by qRT-PCR. Cyclophilin was used as a control house-keeping gene.
Certain materials and methods were used to generate the results described herein. […] Cells were stained with Hoechst 33342 (ThermoFisher Scientific, catalog number H3570) and Eth-D1 (ThermoFisher Scientific, catalog number E1169) and analyzed to determine the percentage of cell death using ImageJ. […] Co-precipitated irisin was analyzed by immunoblot analysis against flag tag (Sigma Aldrich, catalog number A8592). The data shown in FIGS. 5A and 5B were generated from MLO-Y4 cells treated and analyzed as in the experiments used to generate the data shown in FIG. 2D, except that pre-treatment of 100 nM RGDS (FIG. 5A) or echistatin (R & D Systems Inc., catalog number 3202/100U) (FIG. 5B) for 10 minutes was performed before irisin treatment. […] Sclerostin mRNA level was analyzed by qPCR (FIG. 7A). […] Epididymal fats were collected, RNAs were extracted from the tissues, and mRNA levels of the indicated genes were analyzed by qPCR. […]

B1: irisin: secreted cleaved form of FNDC5; recombinant human/mouse irisin with C-terminal his tag produced in HEK293 cells (protein)
chain: DSPSAPVNVTVRHLKANSAVVSWDVLEDEVVIGFAISQQKKDVRMLRFIQEVNTTTRSCALWDLEEDTEYIVHVQAISIQGQSPASEPVLFKTPREAEKMASKNKDEVTMKE
modifications: left off: small tags and cut ends
notes: secreted cleaved form of FNDC5; recombinant human/mouse irisin with C-terminal his tag produced in HEK293 cells
extent of binding of irisin to integrin complex (integrin αV/β5): by far the highest extent of binding; also recorded: highest apparent affinity
concentration as low as which irisin prevented osteocyte cell death (MLO-Y4 cells; MLO-Y4, 0.3 mM H2O2, dose dependent): 1 ng/ml and 70 pM
concentrations at which irisin reduced hydrogen peroxide-induced apoptosis (MLO-Y4 cells; MLO-Y4, hydrogen peroxide): 1 to 500 ng/mL
